Holding throughout (assay): SPR (Biacore)
For experiment [1], the target named is T1, mouse CTGF (Abbexa) (mouse, UniProt P29268 26-348, limits assumed).
T1 construct: also called Murine CTGF; mCTGF
T1 sequence (looked up): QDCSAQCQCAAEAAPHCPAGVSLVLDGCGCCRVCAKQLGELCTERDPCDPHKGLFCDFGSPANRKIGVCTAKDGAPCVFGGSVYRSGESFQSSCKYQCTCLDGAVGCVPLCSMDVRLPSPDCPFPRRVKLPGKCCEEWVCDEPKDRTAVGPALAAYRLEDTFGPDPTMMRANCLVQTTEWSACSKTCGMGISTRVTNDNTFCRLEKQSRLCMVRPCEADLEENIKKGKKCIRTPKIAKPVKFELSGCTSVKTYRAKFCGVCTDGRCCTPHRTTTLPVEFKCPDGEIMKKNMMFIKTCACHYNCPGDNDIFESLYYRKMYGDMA
As to the method:
(§1) The binding of exemplary lipocalin muteins to human (Creative Biomart), cynomolgus, rat (R&D Systems) and mouse CTGF (Abbexa) was determined by SPR using a Biacore instrument (Cytiva, formerly GE Healthcare). Some targets were fused to a human IgG1 Fc tag, and captured via the anti-human IgG antibody kit, others were directly immobilized.
(§2) For some measurements, human CTGF with a human IgG1 Fc Tag or rat or murine CTGF without a tag were directly immobilized to a CM5 Chip. The carboxyl groups on the chip were activated using 1-ethyl-3-(3-dimethylaminopropyl)-carbodiimide (EDC) and N-hydroxysuccinimide (NHS). […] Residual non-reacted NHS-esters were blocked by passing a solution of 1 M ethanolamine across the surface. The reference channel was activated/deactivated. For the capture setting, targets with an IgG Fc Tag at 0.25-2.5 μg/mL in HBS-EP+ buffer were captured by the anti-human IgG-Fc antibody at the chip surface for 180 s at a flow rate of 10 μL/min.
(§3) The binding assay was carried out with a contact time of 180 s, a dissociation time of 900-3600 s and a flow rate of 30 μL/min. All measurements were performed at 25° C. […] For the directly immobilized targets, the same regeneration conditions were used. Prior to the protein measurements, three startup cycles were performed for conditioning purposes.

Experiment [2] addresses T2, recombinant human CTGF-Fc protein (Creative Biomart) (human).
T2 construct: Bought; also called human CTGF with a human IgG1 Fc Tag
The method, then: as §1, §2, §3

The target in experiment [3] is T3, recombinant rat CTGF protein (R&D Systems) (rat, UniProt Q9R1E9 25-347).
T3 construct: Bought; also called rCTGF
T3 sequence: T1 sequence (looked up) with H16R, A148V
The method, then:
as §1, §2, §3

Where a chain is given by its changes, count along the chain named.

T2 sequence (chain, as listed by the source limits assumed): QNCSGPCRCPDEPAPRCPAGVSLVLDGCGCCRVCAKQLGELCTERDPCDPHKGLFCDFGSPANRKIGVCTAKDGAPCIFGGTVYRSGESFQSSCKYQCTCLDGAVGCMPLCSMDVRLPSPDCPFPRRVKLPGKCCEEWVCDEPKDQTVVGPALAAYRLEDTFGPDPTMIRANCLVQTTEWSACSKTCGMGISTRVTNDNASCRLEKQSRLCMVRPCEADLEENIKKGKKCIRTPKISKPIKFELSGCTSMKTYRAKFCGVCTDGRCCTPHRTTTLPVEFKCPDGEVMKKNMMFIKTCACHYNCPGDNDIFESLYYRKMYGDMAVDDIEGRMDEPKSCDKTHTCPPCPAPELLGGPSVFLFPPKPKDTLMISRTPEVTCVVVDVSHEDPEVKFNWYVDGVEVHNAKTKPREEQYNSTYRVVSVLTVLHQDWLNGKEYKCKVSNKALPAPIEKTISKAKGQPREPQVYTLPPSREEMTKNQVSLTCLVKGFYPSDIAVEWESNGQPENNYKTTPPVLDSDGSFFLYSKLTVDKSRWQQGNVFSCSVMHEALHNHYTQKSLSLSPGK

B1: lipocalin mutein of SEQ ID NO: 8 (designed binder)
chain: QDSTSDLIPAPPLSKVPLQQNFQDNQFQGKWYVVGLAGNYGLRTDKRPSKMFATIYELKEDKSYDVTSVRFEQERCHYTIRTFVPGSQPGEFTSGNIGNYPGSYSTLVRVVSTNYNQHAMVFFKSVIQNREYFAITLYGRTKELTSELKENFIRFSKSLGLPENHIVFPVPIDQCIDG
notes: also called hNGAL mutein; not shown: C-terminal His-tag
With B1, in experiment [1], the Kd was determined as 1820 pM, the koff was found to be 0.000131 s⁻¹ and the kon is 72000 M⁻¹ s⁻¹. Further, in experiment [2], the Kd worked out at 2520 pM, the off-rate constant (koff) was found to be 0.000114 s⁻¹ and the on-rate constant (kon) was found to be 45400 M⁻¹ s⁻¹.

B2: lipocalin mutein of SEQ ID NO: 5 (designed binder)
chain: QDSTSDLIPAPPLSKVPLQQNFQDNQFQGKWYVVGKAGNALREDKEPPKMWATIYELKEDKSYDVTHVHFLTKKCKYLIDTFVPGSQPGEFTIGAIKSGPGLTSPLVRVVSTNYNQHAMVFFKWVSQNREWFTITLYGRTKELTSELKENFIRFSKSLGLPENHIVFPVPIDQCIDG
notes: as for B1
Consider B2, for which, in experiment [2], the dissociation constant (Kd) came out at 315 pM, the off-rate constant (koff) is 6.65e-05 s⁻¹ and the kon was 211000 M⁻¹ s⁻¹. In experiment [3], the Kd amounted to 1230 pM, the koff was determined as 0.000362 s⁻¹ and the on-rate constant (kon) was 294000 M⁻¹ s⁻¹.

B3: lipocalin mutein of SEQ ID NO: 10 (designed binder)
chain: QDSTSDLIPAPPLSKVPLQQNFQDNQFQGKWYVVGLAGNAILREDKQPAKMFATIYELKEDKSYDVTSVRFEAKSCSYTIKTFVPGSQPGEFTAGNIKSAPGQTSTLVRVVSTNYNQHAMVFWKSVAGTRESFNIALYGRTKELTSELKENFIRFSKSLGLPENHIVFPVPIDQCIDG
notes: as for B1
For the molecule B3, in experiment [2], the Kd came out at 33 pM, the koff came to 2.23e-06 s⁻¹ and the kon was found to be 67700 M⁻¹ s⁻¹. Moreover, in experiment [3], the Kd turned out to be 460 pM, the dissociation rate constant (koff) came out at 4.08e-05 s⁻¹ and the association rate constant (kon) is 88800 M⁻¹ s⁻¹.

B4: lipocalin mutein of SEQ ID NO: 21 (designed binder)
chain: B3 chain with W123F, S125A, A127R, T129A
notes: as for B1
On to B4, for which, in experiment [1], the equilibrium dissociation constant (Kd) worked out at 173 pM, the off-rate constant (koff) was 3.94e-05 s⁻¹ and the kon came to 228000 M⁻¹ s⁻¹. Moreover, in experiment [2], the Kd was 523 pM, the koff stood at 6.63e-05 s⁻¹ and the on-rate (kon) was determined as 127000 M⁻¹ s⁻¹.

B5: lipocalin mutein of SEQ ID NO: 22 (designed binder)
chain: QDSTSDLIPAPPLSKVPLQQNFQDNQFQGKWYVVGIAGNAILRVDKQPAKMFATIYELKEDKSYDVTSVRFEAKSCVYTIKTFVPGSQPGEFTAGNIKSAPGQTSTLVRVVSTNYNQHAMVFFKHVSQNREIFVITLYGRTKELTSELKENFIRFSKSLGLPENHIVFPVPIDQCIDG
notes: as for B1
For the molecule B5, in experiment [2], the equilibrium dissociation constant (Kd) was 57 pM, the koff was found to be 8.05e-06 s⁻¹ and the on-rate constant (kon) came to 142000 M⁻¹ s⁻¹. Also, in experiment [3], the Kd worked out at 221 pM, the koff was 4.01e-05 s⁻¹ and the kon stood at 181000 M⁻¹ s⁻¹.

B6: lipocalin mutein of SEQ ID NO: 19 (designed binder)
chain: B5 chain with I36L, V44E, V77S, F123H, H125A, I132S
notes: as for B1
For the molecule B6, in experiment [1], the equilibrium dissociation constant (Kd) came out at 273 pM, the dissociation rate constant (koff) turned out to be 2.54e-05 s⁻¹ and the kon is 93200 M⁻¹ s⁻¹. In experiment [2], the dissociation constant (Kd) stood at 918 pM, the koff worked out at 5.2e-05 s⁻¹ and the kon came out at 56600 M⁻¹ s⁻¹.

B7: lipocalin mutein of SEQ ID NO: 27 (designed binder)
chain: QDSTSDLIPAPPLSKVPLQQNFQDNQFQGKWYVVGLAGNYRLREDKDPSKMGATIYELKEDKSYDVTQVQFDDKKCLYVIETFVPGSQPGEFTLGAIKSYPGLTSQLVRVVSTNYNQHAMVFLKKVYGSEEYFHITLYGRTKELTSELKENFIRFSKSLGLPENHIVFPVPIDQCIDG
notes: as for B1
Consider B7, for which, in experiment [1], the Kd stood at 4160 pM, the off-rate constant (koff) is 0.000172 s⁻¹ and the on-rate constant (kon) was determined as 41400 M⁻¹ s⁻¹. In experiment [2], the Kd was 802 pM, the koff amounted to 2.45e-05 s⁻¹ and the on-rate constant (kon) worked out at 30500 M⁻¹ s⁻¹.

B8: lipocalin mutein of SEQ ID NO: 26 (designed binder)
chain: B7 chain with A96N, S99V, G102T, T104E, L123F, G128Q, S129N, E130R, Y132V, H134W
notes: as for B1
In experiment [1], B8 showed a dissociation constant Kd of 5900 pM, a koff of 0.000208 s⁻¹ and a kon of 35300 M⁻¹ s⁻¹. Further, in experiment [2], the Kd amounted to 1320 pM, the koff was 3.06e-05 s⁻¹ and the kon is 23200 M⁻¹ s⁻¹.

B9: lipocalin mutein of SEQ ID NO: 28 (designed binder)
chain: B7 chain with L123V, Y127W, G128P, S129N, E130L, H134Q, T136V
notes: as for B1
In experiment [1], B9 showed a dissociation constant Kd of 1360 pM, a koff of 8.23e-05 s⁻¹ and a kon of 60700 M⁻¹ s⁻¹. In addition, in experiment [2], the dissociation constant (Kd) amounted to 517 pM, the koff is 2.61e-05 s⁻¹ and the kon is 50400 M⁻¹ s⁻¹.

B10: lipocalin mutein of SEQ ID NO: 32 (designed binder)
chain: QDSTSDLIPAPPLSKVPLQQNFQDNQFQGKWYVVGWAGNVKLREDKQPFKMSATIYELKEDKSYDVTEVVFEQKKCHYIIKTFVPGSQPGEFTLSPISSSPGLVSHLVRVVSTNYNQHAMVFFKKVHQNREFFWITLYGRTKELTSELKENFIRFSKSLGLPENHIVFPVPIDQCIDG
notes: as for B1
For the molecule B10, in experiment [1], the Kd worked out at 1980 pM, the koff came to 0.000264 s⁻¹ and the kon is 133000 M⁻¹ s⁻¹. For the same molecule, in experiment [2], the dissociation constant Kd is 587 pM, the koff turned out to be 6.39e-05 s⁻¹ and the kon came out at 109000 M⁻¹ s⁻¹.

B11: lipocalin mutein of SEQ ID NO: 35 (designed binder)
chain: B10 chain with F49L, L94A, S95G, P96D, S98K, S100P, L103Y, V104T, H106S, H127S
notes: as for B1
In experiment [1], B11 gave an equilibrium dissociation constant (Kd) of 2240 pM, an off-rate (koff) of 0.000287 s⁻¹ and an on-rate (kon) of 128000 M⁻¹ s⁻¹. In experiment [2], the Kd turned out to be 550 pM, the koff came out at 5.94e-05 s⁻¹ and the kon amounted to 108000 M⁻¹ s⁻¹. In addition, in experiment [3], the dissociation constant (Kd) was found to be 1420 pM, the koff was determined as 0.000273 s⁻¹ and the association rate constant (kon) stood at 193000 M⁻¹ s⁻¹.

B12: lipocalin mutein of SEQ ID NO: 33 (designed binder)
chain: QDSTSDLIPAPPLSKVPLQQNFQDNQFQGKWYVVGWAGNAKLREDKQPFKMSATIYELKEDKSYDVTEVVFEQKKCHYIIKTFVPGSQPGEFTEGNYKRRPRLWSDLVRVVSTNYNQHAMVFFKKVHQNREFFWITLYGRTKELTSELKENFIRFSKSLGLPENHIVFPVPIDQCIDG
notes: as for B1
Consider B12, for which the Kd was determined as 301 pM in experiment [1], 99 pM in experiment [2] and 226 pM in experiment [3]. The koff in experiment [1] amounted to 5.29e-05 s⁻¹; in experiment [2], 1.71e-05 s⁻¹; in experiment [3] it was 6.3e-05 s⁻¹. The results for the kon in experiment [1], in experiment [2] and in experiment [3] were 176000 M⁻¹ s⁻¹, 172000 M⁻¹ s⁻¹ and 279000 M⁻¹ s⁻¹, respectively.

The record behind these values is patent US20240228562A1 (Pieris, published 2024).
